Experimental data from US20260001928A1 (CORTERIA PHARMACEUTICALS, priority 2022, published 2026).
*1 amine or outer side, *2 acyl side, *3 side chain or, on linkers, in order; H or OH if unused. Where no end group is shown, it is not given here. Side-chain parts run from the residue outwards. [ ]: non-standard residue; d: D form. The star is where a group is joined. C18 diacid = O=C(O)CCCCCCCCCCCCCCCCC(=O)*; C16 diacid = O=C(O)CCCCCCCCCCCCCCC(=O)*; γGlu = O=C(O)[C@H](CCC(=O)[*:2])N[*:1]; NMeI = CC[C@H](C)[C@H](NC)C(=O)O; αMeL = CC(C)C[C@](C)(N)C(=O)O; Pentanoyl = CCCCC(=O)*; AEEA = NCCOCCOCC(=O)O; Aib = CC(C)(N)C(=O)O

T1: CRF1R receptor (UniProt P34998 24-415, limits assumed)
T1 sequence (looked up): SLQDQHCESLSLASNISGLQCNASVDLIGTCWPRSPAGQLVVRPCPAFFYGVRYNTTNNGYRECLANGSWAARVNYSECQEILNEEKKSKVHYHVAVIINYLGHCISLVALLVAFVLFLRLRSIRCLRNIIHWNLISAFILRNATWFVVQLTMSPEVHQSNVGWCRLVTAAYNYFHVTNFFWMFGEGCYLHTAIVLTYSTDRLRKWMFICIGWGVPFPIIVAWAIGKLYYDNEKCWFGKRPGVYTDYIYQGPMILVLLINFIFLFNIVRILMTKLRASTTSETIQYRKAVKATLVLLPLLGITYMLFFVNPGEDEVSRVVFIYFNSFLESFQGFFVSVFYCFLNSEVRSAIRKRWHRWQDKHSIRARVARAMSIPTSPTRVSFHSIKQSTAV


What was measured:
CRF1R receptor = target: T1, CRF1R receptor; assay: cell-based or functional assay
[1] = target: human corticotropin-releasing factor 2a (CRF2a receptor) (human), Q13324; assay: cell-based or functional assay
Chain of human corticotropin-releasing factor 2a (CRF2a receptor) (human), Q13324 (Q13324 20-411): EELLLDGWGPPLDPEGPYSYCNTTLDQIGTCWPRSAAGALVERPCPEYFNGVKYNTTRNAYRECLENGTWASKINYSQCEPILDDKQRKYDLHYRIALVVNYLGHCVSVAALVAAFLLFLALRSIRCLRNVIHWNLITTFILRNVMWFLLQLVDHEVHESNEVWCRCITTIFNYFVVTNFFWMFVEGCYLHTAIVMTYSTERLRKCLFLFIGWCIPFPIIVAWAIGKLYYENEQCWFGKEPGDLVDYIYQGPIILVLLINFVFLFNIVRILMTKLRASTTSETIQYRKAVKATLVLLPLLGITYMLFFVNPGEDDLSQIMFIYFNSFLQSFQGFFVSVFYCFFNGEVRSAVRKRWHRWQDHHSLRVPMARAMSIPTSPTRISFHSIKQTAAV

EC50 (CRF1R receptor) | Emax (% I) (CRF1R receptor) | EC50 [nM] (cAMP) [1] | Binder
0.185 µM | 47% | 0.13 nM | Ac-IVLSLD[dV]PIKLK([γGlu-C16 diacid])QILLKQERQKKQREQAEKN[Aib]QILEQV-NH2 (SMILES CC[C@H](C)[C@H](NC(C)=O)C(=O)N[C@H](C(=O)N[C@@H](CC(C)C)C(=O)N[C@@H](CO)C(=O)N[C@@H](CC(C)C)C(=O)N[C@@H](CC(=O)O)C(=O)N[C@@H](C(=O)N1CCC[C@H]1C(=O)N[C@H](C(=O)N[C@@H](CCCCN)C(=O)N[C@@H](CC(C)C)C(=O)N[C@@H](CCCCNC(=O)CC[C@H](NC(=O)CCCCCCCCCCCCCCC(=O)O)C(=O)O)C(=O)N[C@@H](CCC(N)=O)C(=O)N[C@H](C(=O)N[C@@H](CC(C)C)C(=O)N[C@@H](CC(C)C)C(=O)N[C@@H](CCCCN)C(=O)N[C@@H](CCC(N)=O)C(=O)N[C@@H](CCC(=O)O)C(=O)N[C@@H](CCCNC(=N)N)C(=O)N[C@@H](CCC(N)=O)C(=O)N[C@@H](CCCCN)C(=O)N[C@@H](CCCCN)C(=O)N[C@@H](CCC(N)=O)C(=O)N[C@@H](CCCNC(=N)N)C(=O)N[C@@H](CCC(=O)O)C(=O)N[C@@H](CCC(N)=O)C(=O)N[C@@H](C)C(=O)N[C@@H](CCC(=O)O)C(=O)N[C@@H](CCCCN)C(=O)N[C@@H](CC(N)=O)C(=O)NC(C)(C)C(=O)N[C@@H](CCC(N)=O)C(=O)N[C@H](C(=O)N[C@@H](CC(C)C)C(=O)N[C@@H](CCC(=O)O)C(=O)N[C@@H](CCC(N)=O)C(=O)N[C@H](C(N)=O)C(C)C)[C@@H](C)CC)[C@@H](C)CC)[C@@H](C)CC)C(C)C)C(C)C) [SEQ ID NO 16]
 | -3% | 2.58 nM | Ac-IVLSLD[dV]PIK[αMeL]K([AEEA-AEEA-γGlu-C18 diacid])KILLEQEKQKKQREQAETNVQILAQV-NH2 (SMILES CC[C@H](C)[C@H](NC(C)=O)C(=O)N[C@H](C(=O)N[C@@H](CC(C)C)C(=O)N[C@@H](CO)C(=O)N[C@@H](CC(C)C)C(=O)N[C@@H](CC(=O)O)C(=O)N[C@@H](C(=O)N1CCC[C@H]1C(=O)N[C@H](C(=O)N[C@@H](CCCCN)C(=O)N[C@@](C)(CC(C)C)C(=O)N[C@@H](CCCCNC(=O)COCCOCCNC(=O)COCCOCCNC(=O)CC[C@H](NC(=O)CCCCCCCCCCCCCCCCC(=O)O)C(=O)O)C(=O)N[C@@H](CCCCN)C(=O)N[C@H](C(=O)N[C@@H](CC(C)C)C(=O)N[C@@H](CC(C)C)C(=O)N[C@@H](CCC(=O)O)C(=O)N[C@@H](CCC(N)=O)C(=O)N[C@@H](CCC(=O)O)C(=O)N[C@@H](CCCCN)C(=O)N[C@@H](CCC(N)=O)C(=O)N[C@@H](CCCCN)C(=O)N[C@@H](CCCCN)C(=O)N[C@@H](CCC(N)=O)C(=O)N[C@@H](CCCNC(=N)N)C(=O)N[C@@H](CCC(=O)O)C(=O)N[C@@H](CCC(N)=O)C(=O)N[C@@H](C)C(=O)N[C@@H](CCC(=O)O)C(=O)N[C@H](C(=O)N[C@@H](CC(N)=O)C(=O)N[C@H](C(=O)N[C@@H](CCC(N)=O)C(=O)N[C@H](C(=O)N[C@@H](CC(C)C)C(=O)N[C@@H](C)C(=O)N[C@@H](CCC(N)=O)C(=O)N[C@H](C(N)=O)C(C)C)[C@@H](C)CC)C(C)C)[C@@H](C)O)[C@@H](C)CC)[C@@H](C)CC)C(C)C)C(C)C) [SEQ ID NO 111]
> 0.25 µM | 7% | 16.9 nM | Ac-IVLSLD[dV]PIKLK([AEEA-AEEA-γGlu-γGlu-C18 diacid])Q[Aib]LLKQERQKKQREQAEKNVQILEQV-NH2 (SMILES CC[C@H](C)[C@H](NC(C)=O)C(=O)N[C@H](C(=O)N[C@@H](CC(C)C)C(=O)N[C@@H](CO)C(=O)N[C@@H](CC(C)C)C(=O)N[C@@H](CC(=O)O)C(=O)N[C@@H](C(=O)N1CCC[C@H]1C(=O)N[C@H](C(=O)N[C@@H](CCCCN)C(=O)N[C@@H](CC(C)C)C(=O)N[C@@H](CCCCNC(=O)COCCOCCNC(=O)COCCOCCNC(=O)CC[C@H](NC(=O)CC[C@H](NC(=O)CCCCCCCCCCCCCCCCC(=O)O)C(=O)O)C(=O)O)C(=O)N[C@@H](CCC(N)=O)C(=O)NC(C)(C)C(=O)N[C@@H](CC(C)C)C(=O)N[C@@H](CC(C)C)C(=O)N[C@@H](CCCCN)C(=O)N[C@@H](CCC(N)=O)C(=O)N[C@@H](CCC(=O)O)C(=O)N[C@@H](CCCNC(=N)N)C(=O)N[C@@H](CCC(N)=O)C(=O)N[C@@H](CCCCN)C(=O)N[C@@H](CCCCN)C(=O)N[C@@H](CCC(N)=O)C(=O)N[C@@H](CCCNC(=N)N)C(=O)N[C@@H](CCC(=O)O)C(=O)N[C@@H](CCC(N)=O)C(=O)N[C@@H](C)C(=O)N[C@@H](CCC(=O)O)C(=O)N[C@@H](CCCCN)C(=O)N[C@@H](CC(N)=O)C(=O)N[C@H](C(=O)N[C@@H](CCC(N)=O)C(=O)N[C@H](C(=O)N[C@@H](CC(C)C)C(=O)N[C@@H](CCC(=O)O)C(=O)N[C@@H](CCC(N)=O)C(=O)N[C@H](C(N)=O)C(C)C)[C@@H](C)CC)C(C)C)[C@@H](C)CC)C(C)C)C(C)C) [SEQ ID NO 27]
> 0.25 µM | 6% | 2.2 nM | [NMeI]VLSLD[dV]PIKLK([AEEA-AEEA-γGlu-γGlu-C18 diacid])Q[Aib]LLKQERQKKQREQAEKNVQILEQV-NH2 (N-terminus assumed; SMILES CC[C@H](C)[C@H](NC)C(=O)N[C@H](C(=O)N[C@@H](CC(C)C)C(=O)N[C@@H](CO)C(=O)N[C@@H](CC(C)C)C(=O)N[C@@H](CC(=O)O)C(=O)N[C@@H](C(=O)N1CCC[C@H]1C(=O)N[C@H](C(=O)N[C@@H](CCCCN)C(=O)N[C@@H](CC(C)C)C(=O)N[C@@H](CCCCNC(=O)COCCOCCNC(=O)COCCOCCNC(=O)CC[C@H](NC(=O)CC[C@H](NC(=O)CCCCCCCCCCCCCCCCC(=O)O)C(=O)O)C(=O)O)C(=O)N[C@@H](CCC(N)=O)C(=O)NC(C)(C)C(=O)N[C@@H](CC(C)C)C(=O)N[C@@H](CC(C)C)C(=O)N[C@@H](CCCCN)C(=O)N[C@@H](CCC(N)=O)C(=O)N[C@@H](CCC(=O)O)C(=O)N[C@@H](CCCNC(=N)N)C(=O)N[C@@H](CCC(N)=O)C(=O)N[C@@H](CCCCN)C(=O)N[C@@H](CCCCN)C(=O)N[C@@H](CCC(N)=O)C(=O)N[C@@H](CCCNC(=N)N)C(=O)N[C@@H](CCC(=O)O)C(=O)N[C@@H](CCC(N)=O)C(=O)N[C@@H](C)C(=O)N[C@@H](CCC(=O)O)C(=O)N[C@@H](CCCCN)C(=O)N[C@@H](CC(N)=O)C(=O)N[C@H](C(=O)N[C@@H](CCC(N)=O)C(=O)N[C@H](C(=O)N[C@@H](CC(C)C)C(=O)N[C@@H](CCC(=O)O)C(=O)N[C@@H](CCC(N)=O)C(=O)N[C@H](C(N)=O)C(C)C)[C@@H](C)CC)C(C)C)[C@@H](C)CC)C(C)C)C(C)C) [SEQ ID NO 28]
> 0.25 µM | 6% | 37.2 nM | Pentanoyl-VLSLD[dV]PIKLK([AEEA-AEEA-γGlu-γGlu-C18 diacid])Q[Aib]LLKQERQKKQREQAEKNVQILEQV-NH2 (SMILES CCCCC(=O)N[C@H](C(=O)N[C@@H](CC(C)C)C(=O)N[C@@H](CO)C(=O)N[C@@H](CC(C)C)C(=O)N[C@@H](CC(=O)O)C(=O)N[C@@H](C(=O)N1CCC[C@H]1C(=O)N[C@H](C(=O)N[C@@H](CCCCN)C(=O)N[C@@H](CC(C)C)C(=O)N[C@@H](CCCCNC(=O)COCCOCCNC(=O)COCCOCCNC(=O)CC[C@H](NC(=O)CC[C@H](NC(=O)CCCCCCCCCCCCCCCCC(=O)O)C(=O)O)C(=O)O)C(=O)N[C@@H](CCC(N)=O)C(=O)NC(C)(C)C(=O)N[C@@H](CC(C)C)C(=O)N[C@@H](CC(C)C)C(=O)N[C@@H](CCCCN)C(=O)N[C@@H](CCC(N)=O)C(=O)N[C@@H](CCC(=O)O)C(=O)N[C@@H](CCCNC(=N)N)C(=O)N[C@@H](CCC(N)=O)C(=O)N[C@@H](CCCCN)C(=O)N[C@@H](CCCCN)C(=O)N[C@@H](CCC(N)=O)C(=O)N[C@@H](CCCNC(=N)N)C(=O)N[C@@H](CCC(=O)O)C(=O)N[C@@H](CCC(N)=O)C(=O)N[C@@H](C)C(=O)N[C@@H](CCC(=O)O)C(=O)N[C@@H](CCCCN)C(=O)N[C@@H](CC(N)=O)C(=O)N[C@H](C(=O)N[C@@H](CCC(N)=O)C(=O)N[C@H](C(=O)N[C@@H](CC(C)C)C(=O)N[C@@H](CCC(=O)O)C(=O)N[C@@H](CCC(N)=O)C(=O)N[C@H](C(N)=O)C(C)C)[C@@H](C)CC)C(C)C)[C@@H](C)CC)C(C)C)C(C)C) [SEQ ID NO 29]
 | 4% | 1.35 nM | Ac-IVLSLD[dV]PIKLK([γGlu-C16 diacid])KILLEQEKQKKQREQAETNVQILAQV-NH2 (SMILES CC[C@H](C)[C@H](NC(C)=O)C(=O)N[C@H](C(=O)N[C@@H](CC(C)C)C(=O)N[C@@H](CO)C(=O)N[C@@H](CC(C)C)C(=O)N[C@@H](CC(=O)O)C(=O)N[C@@H](C(=O)N1CCC[C@H]1C(=O)N[C@H](C(=O)N[C@@H](CCCCN)C(=O)N[C@@H](CC(C)C)C(=O)N[C@@H](CCCCNC(=O)CC[C@H](NC(=O)CCCCCCCCCCCCCCC(=O)O)C(=O)O)C(=O)N[C@@H](CCCCN)C(=O)N[C@H](C(=O)N[C@@H](CC(C)C)C(=O)N[C@@H](CC(C)C)C(=O)N[C@@H](CCC(=O)O)C(=O)N[C@@H](CCC(N)=O)C(=O)N[C@@H](CCC(=O)O)C(=O)N[C@@H](CCCCN)C(=O)N[C@@H](CCC(N)=O)C(=O)N[C@@H](CCCCN)C(=O)N[C@@H](CCCCN)C(=O)N[C@@H](CCC(N)=O)C(=O)N[C@@H](CCCNC(=N)N)C(=O)N[C@@H](CCC(=O)O)C(=O)N[C@@H](CCC(N)=O)C(=O)N[C@@H](C)C(=O)N[C@@H](CCC(=O)O)C(=O)N[C@H](C(=O)N[C@@H](CC(N)=O)C(=O)N[C@H](C(=O)N[C@@H](CCC(N)=O)C(=O)N[C@H](C(=O)N[C@@H](CC(C)C)C(=O)N[C@@H](C)C(=O)N[C@@H](CCC(N)=O)C(=O)N[C@H](C(N)=O)C(C)C)[C@@H](C)CC)C(C)C)[C@@H](C)O)[C@@H](C)CC)[C@@H](C)CC)C(C)C)C(C)C) [SEQ ID NO 48]
